Data from PMC5406781, “Myxococcus xanthus DK1622 Coordinates Expressions of the Duplicate groEL and Single groES Genes for Synergistic Functions of GroELs and GroES” (Frontiers in Microbiology, 2017).

B1: Myxococcus xanthus DK1622 GroEL1 (natural protein, UniProt Q1D2S1 1-549, looked up)
chain: MAKDILFDVRAREAILRGVNILADAVKVTLGPKGRNVVIEKSFGSPTITKDGVTVAKEIELENKFENMGAQMVKEVASKTSDVAGDGTTTATVLAQAIFREGAKLVAAGHNPMDIKRGIDKAVGAIVAELKKLAKPTKDKKEIAQVGTISANGDETIGTIIADAMEKVGKEGVITVEEAKGLETTLDVVEGMQFDRGYLSPYFVTDPERMEAALNDALILINEKKISSMKDLLPILEQVARAGKPLLIIAEDIEGEALATLVVNKIRGVLNVCAVKAPGFGDRRKAMLEDIATLTGGRMIAEDLGIKLDTITLQDLGRAKRITVDKDNTTIVDGAGGQQEIEARVKQIRAQIEETSSDYDREKLQERLAKLVGGVAVINVGAATETEMKEKKARVEDALNATRAAVEEGVVPGGGVAYIRCLKALDGLQLSGGEKFGVDIIRRAVEEPLRQIVGNGGLEGSVVVNKVKESSGPFGFNAATGTYEDLLAAGVIDPAKVSRTALQNAASVSSLMLTTEAMVAERPKEEKDLPAGGGMGGMGGMGGMGGMGM
notes: printed Mw 57.9 kDa; no His-tag added; UniProt may number the two paralogues the other way round (groL2 for the gene next to groES); also called Cpn60; chaperonin GroEL; source: E. coli BL21(DE3), pET22b (pET22b-GroEL1-NoHis); purified (100-kDa cut-off concentration, Superdex 200) for the pull-down, in cell extract for native PAGE; copies: 14
B2: Myxococcus xanthus DK1622 GroES without His-tag (natural protein, UniProt Q1D2S2 1-96, looked up)
chain: MKIRPLQDRLIVKRVAEENKTKGGLFIPDTAKEKPLEGKVIAVGNGKVQEDGKVRPLDIKAGDTILFSKYAGTEIKLDGEEHLILREEDVLGVIEK
notes: printed Mw 10.7 kDa; construct named NoHis; also called Cpn10; GroES-NoHis; source: E. coli BL21(DE3), pET28a-GroES-NoHis, in cell extract
B3: Myxococcus xanthus DK1622 GroEL2 (natural protein, UniProt Q1D3Y5 1-547, looked up)
chain: MAAKEIFFHQSAREAILRGVRTLSDAVAVTLGPKGRNVVIEKSFGSPTITKDGVTVAKEIDLENKFENMGAQMVKEVASKTSDKAGDGTTTATVLARAIYEEGLKLVAAGHSPMDLKRGIDKAVEVVVGELKSLSKPTADKKAITQVGTISANGDETIGAIIADAMEKVGKEGVITVEEAKGLETTLDVVEGMQFDRGYVSPYFVTNRERMEAVLEDPYILISEKKVSSMQDMIPLLEQVARSGKPLIIIADDIEGEALATLVVNKIRGVLNVCAVKAPGFGDRRKEMLQDIAVLTGGTVVSEDLGHKFETLTLTDLGRAKRVTVDKDNTTVVDGVGTKAAIEGRIKLIRTQIDSVTSDYDREKLQERLAKLVGGVAVINVGAATETEMKEKKARVEDALHATRAAVEEGIVPGGGVAYLRALPALEKLKPGGEQDFGVAIIRRALQEPLRKIASNAGVEGAVVINKVREGTGAFGYNARTEVYEDLEKAGVIDPTKVERTALQNAASVASLLLTTEAMVAERPKGKAKGGGAGAGMPDYGGDDMDY
notes: printed Mw 58.1 kDa; no His-tag added; UniProt may number the two paralogues the other way round (groL1 for the stand-alone gene); also called Cpn60; chaperonin GroEL; source: E. coli BL21(DE3), pET22b (pET22b-GroEL2-NoHis); purified (100-kDa cut-off concentration, Superdex 200) for the pull-down, in cell extract for native PAGE; copies: 14

Target: the molecule itself
Assay: native gel or EMSA; native PAGE (no SDS or mercaptoethanol, run in ice-water) of extracts of E. coli BL21(DE3) cells expressing GroEL1, GroEL2 or GroES alone, or GroEL1/GroEL2 co-expressed with GroES

Point of comparison: B1, “stoichiometry N” value 14. Against it:
- B2 — lower, 7
- B3 — the same, 14
